Where no end group is shown, it is not given here. [ ]: non-standard residue; d: D form. Aib = CC(C)(N)C(=O)O
B1: Compound A57 (peptide)
peptide: YSHGTFTSDYSKYLD[Aib]KRAQEFV[Aib]WLEDEPKSKQPPPS-OH
modifications: N-terminus assumed
SMILES: CC(C)C[C@H](NC(=O)[C@H](Cc1ccc(O)cc1)NC(=O)[C@H](CCCCN)NC(=O)[C@H](CO)NC(=O)[C@H](Cc1ccc(O)cc1)NC(=O)[C@H](CC(=O)O)NC(=O)[C@H](CO)NC(=O)[C@@H](NC(=O)[C@H](Cc1ccccc1)NC(=O)[C@@H](NC(=O)CNC(=O)[C@H](Cc1c[nH]cn1)NC(=O)[C@H](CO)NC(=O)[C@@H](N)Cc1ccc(O)cc1)[C@@H](C)O)[C@@H](C)O)C(=O)N[C@@H](CC(=O)O)C(=O)NC(C)(C)C(=O)N[C@@H](CCCCN)C(=O)N[C@@H](CCCNC(=N)N)C(=O)N[C@@H](C)C(=O)N[C@@H](CCC(N)=O)C(=O)N[C@@H](CCC(=O)O)C(=O)N[C@@H](Cc1ccccc1)C(=O)N[C@H](C(=O)NC(C)(C)C(=O)N[C@@H](Cc1c[nH]c2ccccc12)C(=O)N[C@@H](CC(C)C)C(=O)N[C@@H](CCC(=O)O)C(=O)N[C@@H](CC(=O)O)C(=O)N[C@@H](CCC(=O)O)C(=O)N1CCC[C@H]1C(=O)N[C@@H](CCCCN)C(=O)N[C@@H](CO)C(=O)N[C@@H](CCCCN)C(=O)N[C@@H](CCC(N)=O)C(=O)N1CCC[C@H]1C(=O)N1CCC[C@H]1C(=O)N1CCC[C@H]1C(=O)N[C@@H](CO)C(=O)O)C(C)C
B2: Compound A52 (peptide)
peptide: YSHGTFTSDYSKYLDIKRAQEFV[Aib]WLEDEPSSGAPPPS-OH
modifications: N-terminus assumed
SMILES: CC[C@H](C)[C@H](NC(=O)[C@H](CC(=O)O)NC(=O)[C@H](CC(C)C)NC(=O)[C@H](Cc1ccc(O)cc1)NC(=O)[C@H](CCCCN)NC(=O)[C@H](CO)NC(=O)[C@H](Cc1ccc(O)cc1)NC(=O)[C@H](CC(=O)O)NC(=O)[C@H](CO)NC(=O)[C@@H](NC(=O)[C@H](Cc1ccccc1)NC(=O)[C@@H](NC(=O)CNC(=O)[C@H](Cc1c[nH]cn1)NC(=O)[C@H](CO)NC(=O)[C@@H](N)Cc1ccc(O)cc1)[C@@H](C)O)[C@@H](C)O)C(=O)N[C@@H](CCCCN)C(=O)N[C@@H](CCCNC(=N)N)C(=O)N[C@@H](C)C(=O)N[C@@H](CCC(N)=O)C(=O)N[C@@H](CCC(=O)O)C(=O)N[C@@H](Cc1ccccc1)C(=O)N[C@H](C(=O)NC(C)(C)C(=O)N[C@@H](Cc1c[nH]c2ccccc12)C(=O)N[C@@H](CC(C)C)C(=O)N[C@@H](CCC(=O)O)C(=O)N[C@@H](CC(=O)O)C(=O)N[C@@H](CCC(=O)O)C(=O)N1CCC[C@H]1C(=O)N[C@@H](CO)C(=O)N[C@@H](CO)C(=O)NCC(=O)N[C@@H](C)C(=O)N1CCC[C@H]1C(=O)N1CCC[C@H]1C(=O)N1CCC[C@H]1C(=O)N[C@@H](CO)C(=O)O)C(C)C
B3: Compound A55 (peptide)
peptide: YSHGTFTSDYSKYLD[Aib]KRAQEFV[Aib]WLEDEPSSKSPPPS-OH
modifications: N-terminus assumed
SMILES: CC(C)C[C@H](NC(=O)[C@H](Cc1ccc(O)cc1)NC(=O)[C@H](CCCCN)NC(=O)[C@H](CO)NC(=O)[C@H](Cc1ccc(O)cc1)NC(=O)[C@H](CC(=O)O)NC(=O)[C@H](CO)NC(=O)[C@@H](NC(=O)[C@H](Cc1ccccc1)NC(=O)[C@@H](NC(=O)CNC(=O)[C@H](Cc1c[nH]cn1)NC(=O)[C@H](CO)NC(=O)[C@@H](N)Cc1ccc(O)cc1)[C@@H](C)O)[C@@H](C)O)C(=O)N[C@@H](CC(=O)O)C(=O)NC(C)(C)C(=O)N[C@@H](CCCCN)C(=O)N[C@@H](CCCNC(=N)N)C(=O)N[C@@H](C)C(=O)N[C@@H](CCC(N)=O)C(=O)N[C@@H](CCC(=O)O)C(=O)N[C@@H](Cc1ccccc1)C(=O)N[C@H](C(=O)NC(C)(C)C(=O)N[C@@H](Cc1c[nH]c2ccccc12)C(=O)N[C@@H](CC(C)C)C(=O)N[C@@H](CCC(=O)O)C(=O)N[C@@H](CC(=O)O)C(=O)N[C@@H](CCC(=O)O)C(=O)N1CCC[C@H]1C(=O)N[C@@H](CO)C(=O)N[C@@H](CO)C(=O)N[C@@H](CCCCN)C(=O)N[C@@H](CO)C(=O)N1CCC[C@H]1C(=O)N1CCC[C@H]1C(=O)N1CCC[C@H]1C(=O)N[C@@H](CO)C(=O)O)C(C)C
B4: Compound A54 (peptide)
peptide: YSHGTFTSDYSKYLD[Aib]KRAQEFV[Aib]WLEDEPSSKEPPPS-OH
modifications: N-terminus assumed
SMILES: CC(C)C[C@H](NC(=O)[C@H](Cc1ccc(O)cc1)NC(=O)[C@H](CCCCN)NC(=O)[C@H](CO)NC(=O)[C@H](Cc1ccc(O)cc1)NC(=O)[C@H](CC(=O)O)NC(=O)[C@H](CO)NC(=O)[C@@H](NC(=O)[C@H](Cc1ccccc1)NC(=O)[C@@H](NC(=O)CNC(=O)[C@H](Cc1c[nH]cn1)NC(=O)[C@H](CO)NC(=O)[C@@H](N)Cc1ccc(O)cc1)[C@@H](C)O)[C@@H](C)O)C(=O)N[C@@H](CC(=O)O)C(=O)NC(C)(C)C(=O)N[C@@H](CCCCN)C(=O)N[C@@H](CCCNC(=N)N)C(=O)N[C@@H](C)C(=O)N[C@@H](CCC(N)=O)C(=O)N[C@@H](CCC(=O)O)C(=O)N[C@@H](Cc1ccccc1)C(=O)N[C@H](C(=O)NC(C)(C)C(=O)N[C@@H](Cc1c[nH]c2ccccc12)C(=O)N[C@@H](CC(C)C)C(=O)N[C@@H](CCC(=O)O)C(=O)N[C@@H](CC(=O)O)C(=O)N[C@@H](CCC(=O)O)C(=O)N1CCC[C@H]1C(=O)N[C@@H](CO)C(=O)N[C@@H](CO)C(=O)N[C@@H](CCCCN)C(=O)N[C@@H](CCC(=O)O)C(=O)N1CCC[C@H]1C(=O)N1CCC[C@H]1C(=O)N1CCC[C@H]1C(=O)N[C@@H](CO)C(=O)O)C(C)C
B5: Compound A53 (peptide)
peptide: YSHGTFTSDYSKYLD[Aib]KRAQEFVLWLEDEPSSGAPPPS-OH
modifications: N-terminus assumed
SMILES: CC(C)C[C@H](NC(=O)[C@H](Cc1c[nH]c2ccccc12)NC(=O)[C@H](CC(C)C)NC(=O)[C@@H](NC(=O)[C@H](Cc1ccccc1)NC(=O)[C@H](CCC(=O)O)NC(=O)[C@H](CCC(N)=O)NC(=O)[C@H](C)NC(=O)[C@H](CCCNC(=N)N)NC(=O)[C@H](CCCCN)NC(=O)C(C)(C)NC(=O)[C@H](CC(=O)O)NC(=O)[C@H](CC(C)C)NC(=O)[C@H](Cc1ccc(O)cc1)NC(=O)[C@H](CCCCN)NC(=O)[C@H](CO)NC(=O)[C@H](Cc1ccc(O)cc1)NC(=O)[C@H](CC(=O)O)NC(=O)[C@H](CO)NC(=O)[C@@H](NC(=O)[C@H](Cc1ccccc1)NC(=O)[C@@H](NC(=O)CNC(=O)[C@H](Cc1c[nH]cn1)NC(=O)[C@H](CO)NC(=O)[C@@H](N)Cc1ccc(O)cc1)[C@@H](C)O)[C@@H](C)O)C(C)C)C(=O)N[C@@H](CCC(=O)O)C(=O)N[C@@H](CC(=O)O)C(=O)N[C@@H](CCC(=O)O)C(=O)N1CCC[C@H]1C(=O)N[C@@H](CO)C(=O)N[C@@H](CO)C(=O)NCC(=O)N[C@@H](C)C(=O)N1CCC[C@H]1C(=O)N1CCC[C@H]1C(=O)N1CCC[C@H]1C(=O)N[C@@H](CO)C(=O)O
B6: Compound A56 (peptide)
peptide: YSHGTFTSDYSKYLD[Aib]KRAQEFV[Aib]WLEDEPKSKAPPPS-OH
modifications: N-terminus assumed
SMILES: CC(C)C[C@H](NC(=O)[C@H](Cc1ccc(O)cc1)NC(=O)[C@H](CCCCN)NC(=O)[C@H](CO)NC(=O)[C@H](Cc1ccc(O)cc1)NC(=O)[C@H](CC(=O)O)NC(=O)[C@H](CO)NC(=O)[C@@H](NC(=O)[C@H](Cc1ccccc1)NC(=O)[C@@H](NC(=O)CNC(=O)[C@H](Cc1c[nH]cn1)NC(=O)[C@H](CO)NC(=O)[C@@H](N)Cc1ccc(O)cc1)[C@@H](C)O)[C@@H](C)O)C(=O)N[C@@H](CC(=O)O)C(=O)NC(C)(C)C(=O)N[C@@H](CCCCN)C(=O)N[C@@H](CCCNC(=N)N)C(=O)N[C@@H](C)C(=O)N[C@@H](CCC(N)=O)C(=O)N[C@@H](CCC(=O)O)C(=O)N[C@@H](Cc1ccccc1)C(=O)N[C@H](C(=O)NC(C)(C)C(=O)N[C@@H](Cc1c[nH]c2ccccc12)C(=O)N[C@@H](CC(C)C)C(=O)N[C@@H](CCC(=O)O)C(=O)N[C@@H](CC(=O)O)C(=O)N[C@@H](CCC(=O)O)C(=O)N1CCC[C@H]1C(=O)N[C@@H](CCCCN)C(=O)N[C@@H](CO)C(=O)N[C@@H](CCCCN)C(=O)N[C@@H](C)C(=O)N1CCC[C@H]1C(=O)N1CCC[C@H]1C(=O)N1CCC[C@H]1C(=O)N[C@@H](CO)C(=O)O)C(C)C
B7: Compound A58 (peptide)
peptide: YSHGTFTSDYSKYLD[Aib]KRAQEFV[Aib]WLEDEPKSKSPPPS-OH
modifications: N-terminus assumed
SMILES: CC(C)C[C@H](NC(=O)[C@H](Cc1ccc(O)cc1)NC(=O)[C@H](CCCCN)NC(=O)[C@H](CO)NC(=O)[C@H](Cc1ccc(O)cc1)NC(=O)[C@H](CC(=O)O)NC(=O)[C@H](CO)NC(=O)[C@@H](NC(=O)[C@H](Cc1ccccc1)NC(=O)[C@@H](NC(=O)CNC(=O)[C@H](Cc1c[nH]cn1)NC(=O)[C@H](CO)NC(=O)[C@@H](N)Cc1ccc(O)cc1)[C@@H](C)O)[C@@H](C)O)C(=O)N[C@@H](CC(=O)O)C(=O)NC(C)(C)C(=O)N[C@@H](CCCCN)C(=O)N[C@@H](CCCNC(=N)N)C(=O)N[C@@H](C)C(=O)N[C@@H](CCC(N)=O)C(=O)N[C@@H](CCC(=O)O)C(=O)N[C@@H](Cc1ccccc1)C(=O)N[C@H](C(=O)NC(C)(C)C(=O)N[C@@H](Cc1c[nH]c2ccccc12)C(=O)N[C@@H](CC(C)C)C(=O)N[C@@H](CCC(=O)O)C(=O)N[C@@H](CC(=O)O)C(=O)N[C@@H](CCC(=O)O)C(=O)N1CCC[C@H]1C(=O)N[C@@H](CCCCN)C(=O)N[C@@H](CO)C(=O)N[C@@H](CCCCN)C(=O)N[C@@H](CO)C(=O)N1CCC[C@H]1C(=O)N1CCC[C@H]1C(=O)N1CCC[C@H]1C(=O)N[C@@H](CO)C(=O)O)C(C)C

Biological target: human GLP-1 receptor (GLP-1R) (human, UniProt P43220 24-463)
Sequence (P43220 24-463): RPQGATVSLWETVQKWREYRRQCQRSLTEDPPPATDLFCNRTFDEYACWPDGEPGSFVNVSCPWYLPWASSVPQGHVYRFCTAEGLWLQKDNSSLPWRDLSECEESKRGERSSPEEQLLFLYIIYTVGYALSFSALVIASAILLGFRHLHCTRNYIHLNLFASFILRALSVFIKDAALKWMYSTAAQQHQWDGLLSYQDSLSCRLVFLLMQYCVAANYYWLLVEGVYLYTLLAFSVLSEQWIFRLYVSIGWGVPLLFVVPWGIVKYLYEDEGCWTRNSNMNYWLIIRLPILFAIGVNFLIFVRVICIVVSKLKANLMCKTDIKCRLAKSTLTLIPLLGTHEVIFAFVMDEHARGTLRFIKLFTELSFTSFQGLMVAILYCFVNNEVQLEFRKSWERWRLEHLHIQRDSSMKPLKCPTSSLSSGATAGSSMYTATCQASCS
Experiment: cell-based or functional assay

Binder	hGLP1 pEC50 (cAMP)
B1	< 9 pEC50
B2	< 9 pEC50
B3	< 9 pEC50
B4	< 9 pEC50
B5	< 9 pEC50
B6	< 9 pEC50
B7	< 9 pEC50

Biological target: human glucagon receptor (GCGR) (human, UniProt P47871 26-477)
Experiment: cell-based or functional assay

Binder	hGCGR pEC50 (cAMP)
B1	12 pEC50
B2	12.4 pEC50
B3	12.2 pEC50
B4	12.4 pEC50
B5	11.6 pEC50
B6	12.3 pEC50
B7	12.2 pEC50
